Measured values: patent US20240270846A1 (published 2024)

Biological target: T1, CD3 epsilon homodimer protein (UniProt P07766 23-126)
T1 construct: Immobilized on Sensor chip CM4 by amine coupling; construct not described; also called CD3 (CD3 epsilon)
Assay: SPR Biacore T200, CD3 epsilon homodimer on CM4 chip, antibody as analyte;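 further: Amine-coupled CD3 epsilon homodimer, run at 25 °C in HBS-EP+ buffer, ratio is bound amount of each single-residue H chain variant over that of the parent antibody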

T1 sequence (P07766 23-126): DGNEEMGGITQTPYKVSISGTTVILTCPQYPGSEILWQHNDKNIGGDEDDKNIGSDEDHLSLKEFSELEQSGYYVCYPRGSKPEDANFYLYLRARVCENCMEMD

B1: CE115HA000 Y100A one-arm antibody (antibody, human IgG1, kappa, L234A L235A, N297A, name in Kabat numbering)
heavy: QVQLVESGGGVVQPGRSLRLSCAASGFTFSNAWMHWVRQAPGKGLEWVAQIKAKSNNYATYYAESVKGRFTISRDDSKNSLYLQMNSLKTEDTAVYYCRYVHYGAAYGVDAWGQGTTVTVSSASTKGPSVFPLAPSSKSTSGGTAALGCLVKDYFPEPVTVSWNSGALTSGVHTFPAVLQSSGLYSLSSVVTVPSSSLGTQTYICNVNHKPSNTKVDKKVEPKSCDKTHTCPPCPAPEAAGGPSVFLFPPKPKDTLMISRTPEVTCVVVDVSHEDPEVKFNWYVDGVEVHNAKTKPREEQYASTYRVVSVLTVLHQDWLNGKEYKCKVSNKALPAPIEKTISKAKGQPREPQVYTLPPSRCELTKNQVSLSCAVKGFYPSDIAVEWESNGQPENNYKTTPPVLDSDGSFFLVSKLTVDKSRWQQGNVFSCSVMHEALHNHYTQKSLSLSPDYKDDDDK
chain: EPKSSDKTHTCPPCPAPELLGGPSVFLFPPKPKDTLMISRTPEVTCVVVDVSHEDPEVKFNWYVDGVEVHNAKTKPREEQYNSTYRVVSVLTVLHQDWLNGKEYKCKVSNKALPAPIEKTISKAKGQPREPQVCTLPPSRDELTKNQVSLWCLVKGFYPSDIAVEWESNGQPENNYKTTPPVLDSDGSFFLYSKLTVDKSRWQQGNVFSCSVMHEALHNRYTQKSLSLSP
light: DIVMTQSPLSLPVTPGEPASISCRSSQSLVHSNRNTYLHWYQQKPGQAPRLLIYKVSNRFSGVPDRFSGSGSGTDFTLKISRVEAEDVGVYYCGQGTQVPYTFGQGTKLEIKRTVAAPSVFIFPPSDEQLKSGTASVVCLLNNFYPREAKVQWKVDNALQSGNSQESVTEQDSKDSTYSLSSTLTLSKADYEKHKVYACEVTHQGLSSPVTKSFNRGEC
notes: one-arm antibody (one Fab)
How did the “ratio of amounts bound (Y/X vs CE115HA000)” value (shortened to “ratio of amounts bound”) turn out when B1 was run?
Its value is 0.9.

B2: CE115HA000 Y100L one-arm antibody (antibody, human IgG1, kappa, L234A L235A, N297A, name in Kabat numbering)
heavy: QVQLVESGGGVVQPGRSLRLSCAASGFTFSNAWMHWVRQAPGKGLEWVAQIKAKSNNYATYYAESVKGRFTISRDDSKNSLYLQMNSLKTEDTAVYYCRYVHYGALYGVDAWGQGTTVTVSSASTKGPSVFPLAPSSKSTSGGTAALGCLVKDYFPEPVTVSWNSGALTSGVHTFPAVLQSSGLYSLSSVVTVPSSSLGTQTYICNVNHKPSNTKVDKKVEPKSCDKTHTCPPCPAPEAAGGPSVFLFPPKPKDTLMISRTPEVTCVVVDVSHEDPEVKFNWYVDGVEVHNAKTKPREEQYASTYRVVSVLTVLHQDWLNGKEYKCKVSNKALPAPIEKTISKAKGQPREPQVYTLPPSRCELTKNQVSLSCAVKGFYPSDIAVEWESNGQPENNYKTTPPVLDSDGSFFLVSKLTVDKSRWQQGNVFSCSVMHEALHNHYTQKSLSLSPDYKDDDDK
chain: EPKSSDKTHTCPPCPAPELLGGPSVFLFPPKPKDTLMISRTPEVTCVVVDVSHEDPEVKFNWYVDGVEVHNAKTKPREEQYNSTYRVVSVLTVLHQDWLNGKEYKCKVSNKALPAPIEKTISKAKGQPREPQVCTLPPSRDELTKNQVSLWCLVKGFYPSDIAVEWESNGQPENNYKTTPPVLDSDGSFFLYSKLTVDKSRWQQGNVFSCSVMHEALHNRYTQKSLSLSP
light: DIVMTQSPLSLPVTPGEPASISCRSSQSLVHSNRNTYLHWYQQKPGQAPRLLIYKVSNRFSGVPDRFSGSGSGTDFTLKISRVEAEDVGVYYCGQGTQVPYTFGQGTKLEIKRTVAAPSVFIFPPSDEQLKSGTASVVCLLNNFYPREAKVQWKVDNALQSGNSQESVTEQDSKDSTYSLSSTLTLSKADYEKHKVYACEVTHQGLSSPVTKSFNRGEC
notes: one-arm antibody (one Fab)
For B2, which “ratio of amounts bound” value is on record?
Its value is 0.7.

B3: CE115HA000 Y100P one-arm antibody (antibody, human IgG1, kappa, L234A L235A, N297A, name in Kabat numbering)
heavy: QVQLVESGGGVVQPGRSLRLSCAASGFTFSNAWMHWVRQAPGKGLEWVAQIKAKSNNYATYYAESVKGRFTISRDDSKNSLYLQMNSLKTEDTAVYYCRYVHYGAPYGVDAWGQGTTVTVSSASTKGPSVFPLAPSSKSTSGGTAALGCLVKDYFPEPVTVSWNSGALTSGVHTFPAVLQSSGLYSLSSVVTVPSSSLGTQTYICNVNHKPSNTKVDKKVEPKSCDKTHTCPPCPAPEAAGGPSVFLFPPKPKDTLMISRTPEVTCVVVDVSHEDPEVKFNWYVDGVEVHNAKTKPREEQYASTYRVVSVLTVLHQDWLNGKEYKCKVSNKALPAPIEKTISKAKGQPREPQVYTLPPSRCELTKNQVSLSCAVKGFYPSDIAVEWESNGQPENNYKTTPPVLDSDGSFFLVSKLTVDKSRWQQGNVFSCSVMHEALHNHYTQKSLSLSPDYKDDDDK
chain: EPKSSDKTHTCPPCPAPELLGGPSVFLFPPKPKDTLMISRTPEVTCVVVDVSHEDPEVKFNWYVDGVEVHNAKTKPREEQYNSTYRVVSVLTVLHQDWLNGKEYKCKVSNKALPAPIEKTISKAKGQPREPQVCTLPPSRDELTKNQVSLWCLVKGFYPSDIAVEWESNGQPENNYKTTPPVLDSDGSFFLYSKLTVDKSRWQQGNVFSCSVMHEALHNRYTQKSLSLSP
light: DIVMTQSPLSLPVTPGEPASISCRSSQSLVHSNRNTYLHWYQQKPGQAPRLLIYKVSNRFSGVPDRFSGSGSGTDFTLKISRVEAEDVGVYYCGQGTQVPYTFGQGTKLEIKRTVAAPSVFIFPPSDEQLKSGTASVVCLLNNFYPREAKVQWKVDNALQSGNSQESVTEQDSKDSTYSLSSTLTLSKADYEKHKVYACEVTHQGLSSPVTKSFNRGEC
notes: one-arm antibody (one Fab)
With B3 as the binder, how does the “ratio of amounts bound” value read?
The value was 0.48.

B4: CE115HA000 Y100D one-arm antibody (antibody, human IgG1, kappa, L234A L235A, N297A, name in Kabat numbering)
heavy: QVQLVESGGGVVQPGRSLRLSCAASGFTFSNAWMHWVRQAPGKGLEWVAQIKAKSNNYATYYAESVKGRFTISRDDSKNSLYLQMNSLKTEDTAVYYCRYVHYGADYGVDAWGQGTTVTVSSASTKGPSVFPLAPSSKSTSGGTAALGCLVKDYFPEPVTVSWNSGALTSGVHTFPAVLQSSGLYSLSSVVTVPSSSLGTQTYICNVNHKPSNTKVDKKVEPKSCDKTHTCPPCPAPEAAGGPSVFLFPPKPKDTLMISRTPEVTCVVVDVSHEDPEVKFNWYVDGVEVHNAKTKPREEQYASTYRVVSVLTVLHQDWLNGKEYKCKVSNKALPAPIEKTISKAKGQPREPQVYTLPPSRCELTKNQVSLSCAVKGFYPSDIAVEWESNGQPENNYKTTPPVLDSDGSFFLVSKLTVDKSRWQQGNVFSCSVMHEALHNHYTQKSLSLSPDYKDDDDK
chain: EPKSSDKTHTCPPCPAPELLGGPSVFLFPPKPKDTLMISRTPEVTCVVVDVSHEDPEVKFNWYVDGVEVHNAKTKPREEQYNSTYRVVSVLTVLHQDWLNGKEYKCKVSNKALPAPIEKTISKAKGQPREPQVCTLPPSRDELTKNQVSLWCLVKGFYPSDIAVEWESNGQPENNYKTTPPVLDSDGSFFLYSKLTVDKSRWQQGNVFSCSVMHEALHNRYTQKSLSLSP
light: DIVMTQSPLSLPVTPGEPASISCRSSQSLVHSNRNTYLHWYQQKPGQAPRLLIYKVSNRFSGVPDRFSGSGSGTDFTLKISRVEAEDVGVYYCGQGTQVPYTFGQGTKLEIKRTVAAPSVFIFPPSDEQLKSGTASVVCLLNNFYPREAKVQWKVDNALQSGNSQESVTEQDSKDSTYSLSSTLTLSKADYEKHKVYACEVTHQGLSSPVTKSFNRGEC
notes: one-arm antibody (one Fab)
How did the “ratio of amounts bound” value turn out when B4 was run?
The value was 0.52.

B5: CE115HA000 Y100K one-arm antibody (antibody, human IgG1, kappa, L234A L235A, N297A, name in Kabat numbering)
heavy: QVQLVESGGGVVQPGRSLRLSCAASGFTFSNAWMHWVRQAPGKGLEWVAQIKAKSNNYATYYAESVKGRFTISRDDSKNSLYLQMNSLKTEDTAVYYCRYVHYGAKYGVDAWGQGTTVTVSSASTKGPSVFPLAPSSKSTSGGTAALGCLVKDYFPEPVTVSWNSGALTSGVHTFPAVLQSSGLYSLSSVVTVPSSSLGTQTYICNVNHKPSNTKVDKKVEPKSCDKTHTCPPCPAPEAAGGPSVFLFPPKPKDTLMISRTPEVTCVVVDVSHEDPEVKFNWYVDGVEVHNAKTKPREEQYASTYRVVSVLTVLHQDWLNGKEYKCKVSNKALPAPIEKTISKAKGQPREPQVYTLPPSRCELTKNQVSLSCAVKGFYPSDIAVEWESNGQPENNYKTTPPVLDSDGSFFLVSKLTVDKSRWQQGNVFSCSVMHEALHNHYTQKSLSLSPDYKDDDDK
chain: EPKSSDKTHTCPPCPAPELLGGPSVFLFPPKPKDTLMISRTPEVTCVVVDVSHEDPEVKFNWYVDGVEVHNAKTKPREEQYNSTYRVVSVLTVLHQDWLNGKEYKCKVSNKALPAPIEKTISKAKGQPREPQVCTLPPSRDELTKNQVSLWCLVKGFYPSDIAVEWESNGQPENNYKTTPPVLDSDGSFFLYSKLTVDKSRWQQGNVFSCSVMHEALHNRYTQKSLSLSP
light: DIVMTQSPLSLPVTPGEPASISCRSSQSLVHSNRNTYLHWYQQKPGQAPRLLIYKVSNRFSGVPDRFSGSGSGTDFTLKISRVEAEDVGVYYCGQGTQVPYTFGQGTKLEIKRTVAAPSVFIFPPSDEQLKSGTASVVCLLNNFYPREAKVQWKVDNALQSGNSQESVTEQDSKDSTYSLSSTLTLSKADYEKHKVYACEVTHQGLSSPVTKSFNRGEC
notes: one-arm antibody (one Fab)
With B5 as the binder, how does the “ratio of amounts bound” value read?
The value was 1.07.

B6: CE115HA000 Y100G one-arm antibody (antibody, human IgG1, kappa, L234A L235A, N297A, name in Kabat numbering)
heavy: QVQLVESGGGVVQPGRSLRLSCAASGFTFSNAWMHWVRQAPGKGLEWVAQIKAKSNNYATYYAESVKGRFTISRDDSKNSLYLQMNSLKTEDTAVYYCRYVHYGAGYGVDAWGQGTTVTVSSASTKGPSVFPLAPSSKSTSGGTAALGCLVKDYFPEPVTVSWNSGALTSGVHTFPAVLQSSGLYSLSSVVTVPSSSLGTQTYICNVNHKPSNTKVDKKVEPKSCDKTHTCPPCPAPEAAGGPSVFLFPPKPKDTLMISRTPEVTCVVVDVSHEDPEVKFNWYVDGVEVHNAKTKPREEQYASTYRVVSVLTVLHQDWLNGKEYKCKVSNKALPAPIEKTISKAKGQPREPQVYTLPPSRCELTKNQVSLSCAVKGFYPSDIAVEWESNGQPENNYKTTPPVLDSDGSFFLVSKLTVDKSRWQQGNVFSCSVMHEALHNHYTQKSLSLSPDYKDDDDK
chain: EPKSSDKTHTCPPCPAPELLGGPSVFLFPPKPKDTLMISRTPEVTCVVVDVSHEDPEVKFNWYVDGVEVHNAKTKPREEQYNSTYRVVSVLTVLHQDWLNGKEYKCKVSNKALPAPIEKTISKAKGQPREPQVCTLPPSRDELTKNQVSLWCLVKGFYPSDIAVEWESNGQPENNYKTTPPVLDSDGSFFLYSKLTVDKSRWQQGNVFSCSVMHEALHNRYTQKSLSLSP
light: DIVMTQSPLSLPVTPGEPASISCRSSQSLVHSNRNTYLHWYQQKPGQAPRLLIYKVSNRFSGVPDRFSGSGSGTDFTLKISRVEAEDVGVYYCGQGTQVPYTFGQGTKLEIKRTVAAPSVFIFPPSDEQLKSGTASVVCLLNNFYPREAKVQWKVDNALQSGNSQESVTEQDSKDSTYSLSSTLTLSKADYEKHKVYACEVTHQGLSSPVTKSFNRGEC
notes: one-arm antibody (one Fab)
Which “ratio of amounts bound” value does the source give for B6 here?
Its value is 1.07.
